In article PMC11006394:

What was measured:
[1] = target: Cno DIL domain (aa 613–1006) (Drosophila) (UniProt Q24279); assay: SEC-MALS; Superdex 200, 0.5 ml/min; for the DIL domain: 100 ul at 5.0 mg/ml injected, 300 mM NaCl, 25 mM Tris-HCl pH 8.5, 1 mM MgCl2, 0.1% beta-mercaptoethanol, 0.2 g/l sodium azide; monomer and homodimer peaks; conditions for FHA-DIL-PDZ not given
[2] = target: Cno FHA-DIL-PDZ protein (aa 372–1110) (Drosophila) (UniProt Q24279); assay: as above

Row | Substance | percent of injected protein eluted as homodimer [1] [%] | stoichiometry N [1] | percent of injected protein eluted as homodimer [2] [%] | stoichiometry N [2]
1 | Cno DIL domain (aa 613–1006) (from UniProt Q24279 613-1006) (domain or fragment) | 27 | 2 |  | 
2 | Cno FHA-DIL-PDZ protein (aa 372–1110) (from UniProt Q24279 372-1110) (domain or fragment) |  |  | 7 | 2
